Experimental data from IntAct's records for PubMed 31515488.

B1: Transcription factor 12 (Homo sapiens), Q99081-3 (parent)
chain: MNPQQQRMAAIGTDKELSDLLDFSAMFSPPVNSGKTRPTTLGSSQFSGSGIDERGGTTSWGTSGQPSPSYDSSRGFTDSPHYSDHLNDSRLGAHEGLSPTPFMNSNLMGKTSERGSFSLYSRDTGLPGCQSSLLRQDLGLGSPAQLSSSGKPGTAYYSFSATSSRRRPLHDSAALDPLQAKKVRKVPPGLPSSVYAPSPNSDDFNRESPSYPSPKPPTSMFASTFFMQDGTHNSSDLWSSSNGMSQPGFGGILGTSTSHMSQSSSYGNLHSHDRLSYPPHSVSPTDINTSLPPMSSFHRGSTSSSPYVAASHTPPINGSDSILGTRGNAAGSSQTGDALGKALASIYSPDHTSSSFPSNPSTPVGSPSPLTGTSQWPRPGGQAPSSPSYENSLHSLKNRVEQQLHEHLQDAMSFLKDVCEQSRMEDRLDRLDDAIHVLRNHAVGPSTSLPAGHSDIHSLLGPSHNAPIGSLNSNYGGSSLVASSRSASMVGTHREDSVSLNGNHSVLSSTVTTSSTDLNHKTQENYRGGLQSQSGTVVTTEIKTENKEKDENLHEPPSSDDMKSDDESSQKDIKVSSRGRTSSTNEDEDLNPEQKIEREKERRMANNARERLRVRDINEAFKELGRMCQLHLKSEKPQTKLLILHQAVAVILSLEQQVRERNLNPKAACLKRREEEKVSAVSAEPPTTLPGTHPGLSETTNPMGHM
partner: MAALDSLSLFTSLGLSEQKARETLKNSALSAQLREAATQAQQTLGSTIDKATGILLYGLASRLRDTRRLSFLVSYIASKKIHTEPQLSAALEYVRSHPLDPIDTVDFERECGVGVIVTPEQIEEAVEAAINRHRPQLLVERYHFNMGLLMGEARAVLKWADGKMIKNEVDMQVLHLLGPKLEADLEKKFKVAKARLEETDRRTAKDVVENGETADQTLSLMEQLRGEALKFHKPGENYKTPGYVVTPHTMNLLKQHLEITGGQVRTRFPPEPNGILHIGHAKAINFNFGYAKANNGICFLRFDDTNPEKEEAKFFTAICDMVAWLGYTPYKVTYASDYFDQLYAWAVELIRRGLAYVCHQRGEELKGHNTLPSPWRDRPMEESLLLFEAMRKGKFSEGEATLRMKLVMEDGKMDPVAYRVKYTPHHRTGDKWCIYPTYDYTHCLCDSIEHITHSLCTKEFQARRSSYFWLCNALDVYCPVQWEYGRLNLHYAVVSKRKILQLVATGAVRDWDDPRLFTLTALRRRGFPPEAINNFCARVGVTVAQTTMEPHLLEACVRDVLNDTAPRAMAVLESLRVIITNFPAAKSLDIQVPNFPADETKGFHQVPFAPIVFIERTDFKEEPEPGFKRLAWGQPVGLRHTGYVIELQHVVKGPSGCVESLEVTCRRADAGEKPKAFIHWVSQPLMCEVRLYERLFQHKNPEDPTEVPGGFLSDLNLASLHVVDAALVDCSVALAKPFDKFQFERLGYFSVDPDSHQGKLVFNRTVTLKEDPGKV
B2: Zinc finger protein 165 (Homo sapiens), P49910 (parent)
chain: MATEPKKAAAQNSPEDEGLLIVKIEEEEFIHGQDTCLQRSELLKQELCRQLFRQFCYQDSPGPREALSRLRELCCQWLKPEIHTKEQILELLVLEQFLTILPGDLQAWVHEHYPESGEEAVTILEDLERGTDEAVLQVQAHEHGQEIFQKKVSPPGPALNVKLQPVETKAHFDSSEPQLLWDCDNESENSRSMPKLEIFEKIESQRIISGRISGYISEASGESQDICKSAGRVKRQWEKESGESQRLSSAQDEGFGKILTHKNTVRGEIISHDGCERRLNLNSNEFTHQKSCKHGTCDQSFKWNSDFINHQIIYAGEKNHQYGKSFKSPKLAKHAAVFSGDKTHQCNECGKAFRHSSKLARHQRIHTGERCYECNECGKSFAESSDLTRHRRIHTGERPFGCKECGRAFNLNSHLIRHQRIHTREKPYECSECGKTFRVSSHLIRHFRIHTGEKPYECSECGRAFSQSSNLSQHQRIHMRENLLM
B3: Ribonuclease P protein subunit p25-like protein (Homo sapiens), Q8N5L8 (parent)
chain: MEHYRKAGSVELPAPSPMPQLPPDTLEMRVRDGSKIRNLLGLALGRLEGGSARHVVFSGSGRAAGKAVSCAEIVKRRVPGLHQLTKLRFLQTEDSWVPASPDTGLDPLTVRRHVPAVWVLLSRDPLDPNECGYQPPGAPPGLGSMPSSSCGPRSRRRARDTRS
partner: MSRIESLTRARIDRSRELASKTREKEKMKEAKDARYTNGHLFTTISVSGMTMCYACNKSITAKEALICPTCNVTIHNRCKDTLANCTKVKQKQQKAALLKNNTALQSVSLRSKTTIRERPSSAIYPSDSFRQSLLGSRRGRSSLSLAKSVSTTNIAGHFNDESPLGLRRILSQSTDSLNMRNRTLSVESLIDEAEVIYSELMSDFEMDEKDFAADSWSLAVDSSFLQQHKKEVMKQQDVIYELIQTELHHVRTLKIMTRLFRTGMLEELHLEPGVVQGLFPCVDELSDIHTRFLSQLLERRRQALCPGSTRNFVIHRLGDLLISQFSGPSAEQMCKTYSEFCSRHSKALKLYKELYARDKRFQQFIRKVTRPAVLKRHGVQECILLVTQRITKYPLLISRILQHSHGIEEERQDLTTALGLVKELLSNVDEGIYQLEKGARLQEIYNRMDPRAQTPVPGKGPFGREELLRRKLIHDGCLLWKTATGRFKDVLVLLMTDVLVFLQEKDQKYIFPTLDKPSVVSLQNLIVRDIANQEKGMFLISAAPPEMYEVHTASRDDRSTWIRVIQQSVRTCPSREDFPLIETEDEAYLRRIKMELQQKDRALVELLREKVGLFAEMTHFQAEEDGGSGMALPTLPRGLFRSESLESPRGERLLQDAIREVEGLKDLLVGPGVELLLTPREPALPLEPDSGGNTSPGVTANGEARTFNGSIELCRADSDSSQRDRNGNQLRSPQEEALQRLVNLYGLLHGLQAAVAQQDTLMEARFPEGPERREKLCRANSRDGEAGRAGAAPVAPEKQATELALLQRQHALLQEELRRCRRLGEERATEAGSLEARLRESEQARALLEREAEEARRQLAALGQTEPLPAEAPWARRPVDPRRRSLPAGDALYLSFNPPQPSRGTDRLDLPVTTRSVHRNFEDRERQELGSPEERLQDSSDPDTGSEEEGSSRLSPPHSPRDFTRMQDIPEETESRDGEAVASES
B4: Keratin, type II cytoskeletal 79 (Homo sapiens), Q5XKE5 (parent)
chain: MRSSVSRQTYSTKGGFSSNSASGGSGSQARTSFSSVTVSRSSGSGGGAHCGPGTGGFGSRSLYNLGGHKSISVSVAGGALLGRALGGFGFGSRAFMGQGAGRQTFGPACPPGGIQEVTVNQSLLTPLHVEIDPEIQRVRTQEREQIKTLNNKFASFIDKVRFLEQQNKVLETKWALLQEQGQNLGVTRNNLEPLFEAYLGSMRSTLDRLQSERGRLDSELRNVQDLVEDFKNKYEDEINKHTAAENEFVVLKKDVDAAYMGRMDLHGKVGTLTQEIDFLQQLYEMELSQVQTHVSNTNVVLSMDNNRNLDLDSIIAEVKAQYELIAQRSRAEAEAWYQTKYEELQVTAGKHGDNLRDTKNEIAELTRTIQRLQGEADAAKKQCQQLQTAIAEAEQRGELALKDAQKKLGDLDVALHQAKEDLTRLLRDYQELMNVKLALDVEIATYRKLLESEESRMSGECPSAVSISVTGNSTTVCGGGAASFGGGISLGGSGGATKGGFSTNVGYSTVKGGPVSAGTSILRKTTTVKTSSQRY

Variants of: B1
Settings: with syq_human QARS1, P47897

| Variant | effect of a mutation on the interaction |
| --- | --- |
| N606H | with no effect |
| A155T | with no effect |
| A482V | with no effect |
| R74G | with no effect |
| S446F | with no effect |

Variants of: B2
Settings: with kat7_human KAT7, O95251
kat7_human KAT7, O95251, sequence (O95251 whole entry): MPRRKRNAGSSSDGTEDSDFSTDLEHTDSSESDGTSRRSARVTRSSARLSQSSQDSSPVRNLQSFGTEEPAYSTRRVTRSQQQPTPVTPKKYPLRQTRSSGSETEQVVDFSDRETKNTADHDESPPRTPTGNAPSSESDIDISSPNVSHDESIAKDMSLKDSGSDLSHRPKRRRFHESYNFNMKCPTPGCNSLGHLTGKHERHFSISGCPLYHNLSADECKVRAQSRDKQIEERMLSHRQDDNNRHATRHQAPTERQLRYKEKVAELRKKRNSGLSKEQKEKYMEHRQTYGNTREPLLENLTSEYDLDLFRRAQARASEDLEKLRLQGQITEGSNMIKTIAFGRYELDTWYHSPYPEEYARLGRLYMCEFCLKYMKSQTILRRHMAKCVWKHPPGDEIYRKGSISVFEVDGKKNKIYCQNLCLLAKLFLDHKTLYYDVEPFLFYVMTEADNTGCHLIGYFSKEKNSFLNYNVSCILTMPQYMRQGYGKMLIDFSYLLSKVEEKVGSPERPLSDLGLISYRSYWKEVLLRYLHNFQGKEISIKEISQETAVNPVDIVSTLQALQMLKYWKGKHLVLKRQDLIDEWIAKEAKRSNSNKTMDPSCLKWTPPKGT

| Variant | effect of a mutation on the interaction |
| --- | --- |
| R69C | with no effect |
| N347Y | with no effect |

Variants of: B2
Settings: with pdli7_human PDLIM7, Q9NR12
pdli7_human PDLIM7, Q9NR12, sequence (Q9NR12 whole entry): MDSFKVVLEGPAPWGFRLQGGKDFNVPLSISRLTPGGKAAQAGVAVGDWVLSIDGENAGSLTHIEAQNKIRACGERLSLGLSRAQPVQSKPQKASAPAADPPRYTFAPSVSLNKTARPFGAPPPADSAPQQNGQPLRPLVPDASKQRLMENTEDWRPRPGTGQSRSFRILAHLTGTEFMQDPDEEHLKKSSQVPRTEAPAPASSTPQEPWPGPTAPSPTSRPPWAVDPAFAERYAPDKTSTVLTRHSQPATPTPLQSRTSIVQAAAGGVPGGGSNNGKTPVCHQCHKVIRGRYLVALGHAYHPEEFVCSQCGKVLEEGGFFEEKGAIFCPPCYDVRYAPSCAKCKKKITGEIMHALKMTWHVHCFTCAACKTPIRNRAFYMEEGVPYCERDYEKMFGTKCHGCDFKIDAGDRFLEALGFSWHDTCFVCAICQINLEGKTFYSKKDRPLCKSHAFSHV

| Variant | effect of a mutation on the interaction |
| --- | --- |
| R69C | with no effect |
| N347Y | with no effect |

Variants of: B2
Settings: with trim1_human MID2, Q9UJV3
trim1_human MID2, Q9UJV3, sequence (Q9UJV3 whole entry): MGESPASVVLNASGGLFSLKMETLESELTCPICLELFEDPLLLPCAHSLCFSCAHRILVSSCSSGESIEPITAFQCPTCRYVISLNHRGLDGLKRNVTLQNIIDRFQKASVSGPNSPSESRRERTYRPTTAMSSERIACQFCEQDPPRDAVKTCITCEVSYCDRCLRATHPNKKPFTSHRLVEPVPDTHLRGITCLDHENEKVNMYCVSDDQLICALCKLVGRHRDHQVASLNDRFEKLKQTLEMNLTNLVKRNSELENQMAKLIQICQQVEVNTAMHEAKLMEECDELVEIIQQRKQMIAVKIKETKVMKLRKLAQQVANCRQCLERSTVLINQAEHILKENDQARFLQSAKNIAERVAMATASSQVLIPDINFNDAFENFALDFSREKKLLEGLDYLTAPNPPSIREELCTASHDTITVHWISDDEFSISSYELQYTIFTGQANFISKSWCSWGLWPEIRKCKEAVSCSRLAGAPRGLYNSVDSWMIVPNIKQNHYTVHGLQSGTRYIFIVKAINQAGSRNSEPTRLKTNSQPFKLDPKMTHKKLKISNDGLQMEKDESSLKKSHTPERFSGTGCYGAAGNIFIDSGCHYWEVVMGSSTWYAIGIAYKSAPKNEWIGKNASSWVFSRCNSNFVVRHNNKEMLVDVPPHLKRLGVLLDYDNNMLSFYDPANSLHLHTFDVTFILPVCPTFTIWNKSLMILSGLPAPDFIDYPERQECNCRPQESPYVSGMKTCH

| Variant | effect of a mutation on the interaction |
| --- | --- |
| R69C | with no effect |
| N347Y | with no effect |

Variants of: B2
Settings: with zn446_human ZNF446, Q9NWS9
zn446_human ZNF446, Q9NWS9, sequence (Q9NWS9 whole entry): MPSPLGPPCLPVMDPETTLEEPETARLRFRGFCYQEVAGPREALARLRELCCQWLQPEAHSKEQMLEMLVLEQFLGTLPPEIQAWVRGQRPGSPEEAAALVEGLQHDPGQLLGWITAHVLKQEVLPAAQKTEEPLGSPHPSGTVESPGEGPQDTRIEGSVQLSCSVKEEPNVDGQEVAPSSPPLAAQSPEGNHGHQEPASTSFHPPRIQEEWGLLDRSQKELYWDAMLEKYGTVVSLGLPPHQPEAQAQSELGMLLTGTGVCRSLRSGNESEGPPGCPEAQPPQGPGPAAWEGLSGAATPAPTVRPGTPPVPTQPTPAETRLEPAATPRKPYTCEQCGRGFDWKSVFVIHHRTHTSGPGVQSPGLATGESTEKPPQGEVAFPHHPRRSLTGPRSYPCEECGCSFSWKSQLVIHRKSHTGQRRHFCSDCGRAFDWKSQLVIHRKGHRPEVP

| Variant | effect of a mutation on the interaction |
| --- | --- |
| R69C | with no effect |
| N347Y | with no effect |

Variants of: B3
Settings: with arhg2_human ARHGEF2, Q92974

| Variant | effect of a mutation on the interaction |
| --- | --- |
| R155Q | with no effect |
| D127N | with no effect |

Variants of: B4
Settings: with kt33b_human KRT33B

| Variant | effect of a mutation on the interaction |
| --- | --- |
| D217Y | with no effect |
| H266R | with no effect |

Variants of: B4
Settings: with KRT15, P19012
KRT15, P19012, sequence (P19012 whole entry): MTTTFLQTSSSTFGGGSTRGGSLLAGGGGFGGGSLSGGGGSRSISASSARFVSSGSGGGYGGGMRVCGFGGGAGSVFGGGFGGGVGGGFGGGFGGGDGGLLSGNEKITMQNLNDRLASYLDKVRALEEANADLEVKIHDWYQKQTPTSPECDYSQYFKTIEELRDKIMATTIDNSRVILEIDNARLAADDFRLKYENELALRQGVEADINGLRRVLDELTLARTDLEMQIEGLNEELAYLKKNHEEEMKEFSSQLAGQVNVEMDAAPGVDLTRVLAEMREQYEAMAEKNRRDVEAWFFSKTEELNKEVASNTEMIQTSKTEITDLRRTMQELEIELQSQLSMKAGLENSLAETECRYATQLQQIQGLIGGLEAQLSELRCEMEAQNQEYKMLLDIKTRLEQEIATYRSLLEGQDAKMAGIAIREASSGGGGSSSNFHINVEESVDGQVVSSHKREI

| Variant | effect of a mutation on the interaction |
| --- | --- |
| D217Y | with no effect |
| R161Q | with no effect |
| H266R | with no effect |
| G86E | with no effect |
| R213W | with no effect |
| R30C | with no effect |
